Residue numbers refer to the chain shown, from its start. Numbers in names are those of the source.
Assays:
Type in all cases: cell-based
E. coli K12 [1] = experiment: Survival test on agar plate with 1-octene overlay; conditions: 2 days at room temperature, FIG. 1B
Experimental: FIG. 1. Impact of styrene, 1-hexene and 1-octene on cell growth. A: The olefin compounds were added to different concentrations as indicated to an E. coli K12 culture at an OD600=0.2. OD was monitored after 2 hour at 37° C. The bars represent standard deviation between duplicates B: A survival test in presence of 1-octene was performed. Six different dilutions of a culture (10 cells to 10^7 cells, left to right) of E. coli K12 were spotted in triplicate on an agar plate. An overlay of 1-octene was added over the cells (controls had no overlay). Plates were incubated at room temperature for 2 days and then opened to allow evaporation of the olefin.
For agar plate based assays, cells were first streaked overnight and few colonies were used to inoculate a preculture of 6 mL of LB-Cm with glucose (2 g/L) and arabinose (5 mM). At OD60=1 at 37° C., the cultures were used to prepare a dilution series. Dilution 0 (D0) corresponds to the OD600, =1, and contains ˜10^9 cells/mL. Dilution 1 (D1) is a 10-fold dilution of D0, dilution 2 (D2) a 10-fold dilution of D1 up to dilution 5 (D5), which contains ˜10^4 cells/mL. 10 μL of each dilution was spotted in triplicate on LB-agar plates (single well plates, Thermo Scientific, Waltham, Mass.) containing 30 mL of LB-agar, Cm (30 mg/L), glucose (2 g/L) and arabinose (5 mM). […]

E. coli K12 [2] = experiment: microbe, parasite or virus in culture; conditions: Escherichia coli, K12, 2 h, read-out: toxic dose (concentration of compound that decreased growth by half)
Experimental: A: The olefin compounds were added to different concentrations as indicated to an E. coli K12 culture at an OD600=0.2. OD was monitored after 2 hour at 37° C. The bars represent standard deviation between duplicates B: A survival test in presence of 1-octene was performed. Six different dilutions of a culture (10 cells to 10^7 cells, left to right) of E. coli K12 were spotted in triplicate on an agar plate. […] Plates were incubated at room temperature for 2 days and then opened to allow evaporation of the olefin.
In this example, toxicity of olefin compounds was evaluated. A toxic dose was defined as the concentration of compound that decreased growth by half.

E. coli K12 ΔacrAB [3] = experiment: Growth in liquid culture with 1-hexene, styrene or bile salts, strains producing AcrAB or AcrB variants
Experimental: (§1) FIG. 2: impact of AcrAB production on growth, in presence of styrene 1-hexene, 1-octene and 1-nonene on cell growth. A: Different concentrations of styrene were added to an OD600=0.2 culture of E. coli K12 ΔacrAB containing the pABc (white) or the control plasmid p0c (black). OD density was monitored after 2 hours of growth at 37° C. The bars represent standard deviation between duplicates. B: A survival test in presence of 1-hexene, 1-octene, or 1-nonene saturated atmosphere was performed. Six different dilutions of cultures (10 cells to 10^7 cells, left to right on the figure) were spotted in triplicate on an agar plates. Plates were then exposed to the aforementioned chemicals.
FIG. 5: Impact of beneficial AcrB mutations on growth, in presence of 1-hexene and styrene. Different concentrations of 1-hexene (A), styrene (B), or bile salts (C) were added to an OD600=0.2 culture of E. Coli K12 ΔacrAB containing either the AcrB wild type (pABc) or the AcrB variants. OD densities were monitored after 2 hours of culture at 37° C. The bars represent standard deviation between duplicates.
Cells were first inoculated in 6 mL LB-Cm with glucose (2 g/L) and arabinose (5 mM). […] After 2 hours at 37° C., OD600 was measured. […]

E. coli K12 wild type = experiment: Survival test in 1-hexene saturated atmosphere on over-production of AcrA, AcrB and TolC; conditions: FIG. 3
Experimental: Six different dilutions of cultures (10 cells to 10^7 cells, left to right on the picture) were spotted in triplicate on an agar plate.
For agar plate based assays, cells were first streaked overnight and few colonies were used to inoculate a preculture of 6 mL of LB-Cm with glucose (2 g/L) and arabinose (5 mM). At OD60=1 at 37° C., the cultures were used to prepare a dilution series. Dilution 0 (D0) corresponds to the OD600, =1, and contains ˜10^9 cells/mL. Dilution 1 (D1) is a 10-fold dilution of D0, dilution 2 (D2) a 10-fold dilution of D1 up to dilution 5 (D5), which contains ˜10^4 cells/mL. 10 μL of each dilution was spotted in triplicate on LB-agar plates (single well plates, Thermo Scientific, Waltham, Mass.) containing 30 mL of LB-agar, Cm (30 mg/L), glucose (2 g/L) and arabinose (5 mM). […] The agar plates were then inverted over the lid, cells facing the olefin compound, sealed with parafilm, placed in the plastic bag (the original packaging for the petri dishes) and incubated for 2 days at room temperature. For 1-octene, a second condition, via overlaying 2 mL of compound on the top of the agar submerging the cells, was used. TolC overexpression impact was examined using the same method, but in this case, the LB media and the LB-agar were also supplemented with ampicillin (100 mg/L) and IPTG (100 μM).

E. coli K12 ΔacrAB [4] = experiment: Survival assay on agar plate in olefin saturated atmosphere, strains producing AcrAB or AcrB variants
Experimental: as §1
FIG. 4: Impact of beneficial mutations on AcrB on tolerance to 1-hexene, A: Survival test of E. coli strain producing either the AcrB wild type or variants in a 1-hexene saturated atmosphere was performed. Two dilutions of cultures (Dilution 1: 10^5 cells and Dilution 2: 10^4 cells) were spotted in triplicate on an agar plate. B: Localization of the 6 beneficial mutations represented on the structure of a single monomer of AcrB or C: on the structure of the AcrB trimer.
FIG. 6: Impact of beneficial mutations on AcrB on tolerance to 1-hexene. A: Survival test of E. coli strain producing either the AcrB Wild type or variants with 1, 2 or several beneficial mutations, in an 1-hexene saturated atmosphere was performed. Two dilutions of cultures (Dilution 2: 10^4 cells and Dilution 3: 10^3 cells) were spotted in triplicate on an agar plate. B: Soluble fraction of total proteins from a culture of strains producing either the wild type, either the variant F617L, either the variant 6 (A279T, Q584R, F617L) were analyzed by western blot using anti-His antibody.
For agar plate based assays, cells were first streaked overnight and few colonies were used to inoculate a preculture of 6 mL of LB-Cm with glucose (2 g/L) and arabinose (5 mM). At OD60=1 at 37° C., the cultures were used to prepare a dilution series. Dilution 0 (D0) corresponds to the OD600, =1, and contains ˜10^9 cells/mL. Dilution 1 (D1) is a 10-fold dilution of D0, dilution 2 (D2) a 10-fold dilution of D1 up to dilution 5 (D5), which contains ˜10^4 cells/mL. 10 μL of each dilution was spotted in triplicate on LB-agar plates (single well plates, Thermo Scientific, Waltham, Mass.) containing 30 mL of LB-agar, Cm (30 mg/L), glucose (2 g/L) and arabinose (5 mM). Small containers (microfuge tube lids) were placed on the open lid of the agar plate and filled with 400 to 600 μL of 1-hexene or 1-octene or with 75 μL of 1-nonene. The agar plates were then inverted over the lid, cells facing the olefin compound, sealed with parafilm, placed in the plastic bag (the original packaging for the petri dishes) and incubated for 2 days at room temperature. For 1-octene, a second condition, via overlaying 2 mL of compound on the top of the agar submerging the cells, was used. TolC overexpression impact was examined using the same method, but in this case, the LB media and the LB-agar were also supplemented with ampicillin (100 mg/L) and IPTG (100 μM). […]

Molecule: C=CCCCCCC [1-octene]
- toxicity relative to the other olefins tested (E. coli K12 [1]): less toxic
- IC50 (E. coli K12 [2]): > 1000 µg/mL

B1: AcrA and AcrB: plasmid-borne wild type acrA and acrB in an operon under an arabinose inducible promoter (pABc) (protein, UniProt P0AE06 25-397; P31224 1-1049, looked up)
Multidrug efflux pump subunit … 1: CDDKQAQQGGQQMPAVGVVTVKTEPLQITTELPGRTSAYRIAEVRPQVSGIILKRNFKEGSDIEAGVSLYQIDPATYQATYDSAKGDLAKAQAAANIAQLTVNRYQKLLGTQYISKQEYDQALADAQQANAAVTAAKAAVETARINLAYTKVTSPISGRIGKSNVTEGALVQNGQATALATVQQLDPIYVDVTQSSNDFLRLKQELANGTLKQENGKAKVSLITSDGIKFPQDGTLEFSDVTVDQTTGSITLRAIFPNPDHTLLPGMFVRARLEEGLNPNAILVPQQGVTRTPRGDATVLVVGADDKVETRPIVASQAIGDKWLVTEGLKAGDRVVISGLQKVRPGVQVKAQEVTADNNQQAASGAQPEQSKS
Multidrug efflux pump subunit … 2: MPNFFIDRPIFAWVIAIIIMLAGGLAILKLPVAQYPTIAPPAVTISASYPGADAKTVQDTVTQVIEQNMNGIDNLMYMSSNSDSTGTVQITLTFESGTDADIAQVQVQNKLQLAMPLLPQEVQQQGVSVEKSSSSFLMVVGVINTDGTMTQEDISDYVAANMKDAISRTSGVGDVQLFGSQYAMRIWMNPNELNKFQLTPVDVITAIKAQNAQVAAGQLGGTPPVKGQQLNASIIAQTRLTSTEEFGKILLKVNQDGSRVLLRDVAKIELGGENYDIIAEFNGQPASGLGIKLATGANALDTAAAIRAELAKMEPFFPSGLKIVYPYDTTPFVKISIHEVVKTLVEAIILVFLVMYLFLQNFRATLIPTIAVPVVLLGTFAVLAAFGFSINTLTMFGMVLAIGLLVDDAIVVVENVERVMAEEGLPPKEATRKSMGQIQGALVGIAMVLSAVFVPMAFFGGSTGAIYRQFSITIVSAMALSVLVALILTPALCATMLKPIAKGDHGEGKKGFFGWFNRMFEKSTHHYTDSVGGILRSTGRYLVLYLIIVVGMAYLFVRLPSSFLPDEDQGVFMTMVQLPAGATQERTQKVLNEVTHYYLTKEKNNVESVFAVNGFGFAGRGQNTGIAFVSLKDWADRPGEENKVEAITMRATRAFSQIKDAMVFAFNLPAIVELGTATGFDFELIDQAGLGHEKLTQARNQLLAEAAKHPDMLTSVRPNGLEDTPQFKIDIDQEKAQALGVSINDINTTLGAAWGGSYVNDFIDRGRVKKVYVMSEAKYRMLPDDIGDWYVRAADGQMVPFSAFSSSRWEYGSPRLERYNGLPSMEILGQAAPGKSTGEAMELMEQLASKLPTGVGYDWTGMSYQERLSGNQAPSLYAISLIVVFLCLAALYESWSIPFSVMLVVPLGVIGALLAATFRGLTNDVYFQVGLLTTIGLSAKNAILIVEFAKDLMDKEGKGLIEATLDAVRMRLRPILMTSLAFILGVMPLVISTGAGSGAQNAVGTGVMGGMVTATVLAIFFVPVFFVVVRRRFSRKNEDIEHSHTVDHH
- survival in the presence of styrene compared to control plasmid (E. coli K12 ΔacrAB [3]; pABc vs p0c, styrene, FIG. 2A): enhanced survival
- tolerance to 1-hexene on over-expression in the wild type strain (E. coli K12 wild type): greater than the wild type
- survival and growth in 1-hexene, 1-octene and 1-nonene (E. coli K12 ΔacrAB [4]; pump expression vs control plasmid, saturated atmosphere, FIG. 2B): strong advantage

B2: Q584R: E. coli AcrB (SEQ ID NO:1) variant with amino acid mutation Q584R (protein)
chain: B1 Multidrug efflux pump subunit … 2 with Q584R
modifications: E. coli
- growth of the strain in presence of bile salts (E. coli K12 ΔacrAB [3]; bile salts, FIG. 5C): improved the growth
- efficiency among the beneficial mutations (E. coli K12 ΔacrAB [4]; 1-hexene saturated atmosphere): more efficient
- tolerance to 1-hexene relative to wild type AcrB sequence (E. coli K12 ΔacrAB [4]; single mutation AcrB variants, 1-hexene saturated atmosphere, FIG. 4A): improvement in tolerance

Source: patent US10513713B2, “Modified host cells having tolerance to α-olefins” (priority 2014, dated 2019)
